Substitutions are numbered along the chain they refer to.
B1: PGT121.60 hIgG1/hLambda (antibody)
heavy: QMQLQESGPGLVKPSETLSLTCSVSGASISDSYWSWIRRSPGKGLEWIGYVHKSGDTNYNPSLKSRVHLSLDTSKNQVSLSLTGVTAADSGKYYCARTLHGRRIYGIVAFNEWFTYFYMDVWGTGTQVTVSSASTKGPSVFPLAPSSKSTSGGTAALGCLVKDYFPEPVTVSWNSGALTSGVHTFPAVLQSSGLYSLSSVVTVPSSSLGTQTYICNVNHKPSNTKVDKKVEPKSCDKTHTCPPCPAPELLAGPDVFLFPPKPKDTLMISRTPEVTCVVVDVSHEDPEVKFNWYVDGVEVHNAKTKPREEQYNSTYRVVSVLTVLHQDWLNGKEYKCKVSNKALPLPEEKTISKAKGQPREPQVYTLPPSREEMTKNQVSLTCLVKGFYPSDIAVEWESNGQPENNYKTTPPVLDSDGSFFLYSKLTVDKSRWQQGNVFSCSVLHEALHSHYTQKSLSLSPGK
light: not shown
B2: PGT121.61 hIgG1/hLambda (antibody)
heavy: B1 heavy
light: SDISVAPGETARISCGEKSLGSRAVQWYQHRAGQAPSLIIYNNQDRPSGIPERFSGSPDSRPGTTATLTITSVEAGDEADYYCHIWDSRVPTKWVFGGGTKLTVLGQPKAAPSVTLFPPSSEELQANKATLVCLISDFYPGAVTVAWKADSSPVKAGVETTTPSKQSNNKYAASSYLSLTPEQWKSHRSYSCQVTHEGSTVEKTVAPTECS
B3: PGT121.61 hIgG1/hLambda (antibody)
heavy: B1 heavy
light: B2 light
B4: PGT121.56 hIgG1/hLambda (antibody)
heavy: B1 heavy with N60S, H68N, T83V, G84A, V85A, T124N
light: not shown
B5: PGT121.65 hIgG1/hLambda (antibody)
heavy: B1 heavy with M2L, S32A, T98A
light: B2 light
B6: PGT121.64 hIgG1/hLambda (antibody)
heavy: B1 heavy with M2L, S32A, T98A
light: not shown
B7: PGT121.42 hIgG1/hLambda (antibody)
heavy: B1 heavy with T83S, G84S, T124K
light: not shown
notes: also called PTG121.42

Legend:
HIV-1 BaL Env (on virus) = HIV-1 BaL Env (on virus) (HIV-1 strain BaL); assay: cell-based or functional assay
[1] = target: HIV-1 93HT593 Env (on virus) (HIV-1 isolate 93HT593); assay: cell-based or functional assay
[2] = target: HIV-1 92US657 Env (on virus) (HIV-1 isolate 92US657); assay: cell-based or functional assay
[3] = target: HIV-1 92US712 Env (on virus) (HIV-1 isolate 92US712); assay: cell-based or functional assay
[4] = target: HIV-1 92US727 Env (on virus) (HIV-1 isolate 92US727); assay: cell-based or functional assay
[5] = target: human FcγRIIIA on primary NK effector cells (human, UniProt P08637 17-254); assay: cell-based or functional assay
Human FcRn [6] = target: T1, Human FcRn (human, UniProt P55899 24-297; P61769 21-119); assay: ELISA, FcRn coated on plate, pH 6.0
T1 construct: also called neonatal Fc receptor
Method: (§1) The binding of antibodies to FcRn of various species at different pHs was determined. A 96-well Maxisorp plate was coated with 100 ul of 5 μg/ml FcRn. The plate was incubated overnight at 4° C., and then blocked with 4% skim milk for 2 hr at room temperature after washing 3 times with 0.05% Tween 20 washing buffer. The plate was incubated with 3 fold serial dilution of primary antibody for 1 hr at room temperature. The plate was then washed 3 times and 100 of Fab-anti-human Fab-HRP or Goat anti-human IgG-HRP secondary antibody diluted in 4% skimmed milk was added. Plates were then incubated 50 min at room temperature, washed three times, and 100 μL fresh TMB substrate was added. Plates were developed for 3 minutes on bench with gentle shaking. Plate was quenched with 100 μL 1M HCl, shaken briefly, read at A450 on a spectramax m5 plate reader.

Human FcRn [7] = target: T1, Human FcRn; assay: ELISA, FcRn coated on plate, pH 7.0
Method: as §1

Human FcRn [8] = target: T1, Human FcRn; assay: ELISA, pH 7.0/6.0 ratio relative to PGT121
Method: as §1

Human FcRn [9] = target: T1, Human FcRn; assay: ELISA, ratio of EC50 at pH 7.0 to EC50 at pH 6.0
Method: as §1

Chain of human FcγRIIIA on primary NK effector cells (P08637 17-254): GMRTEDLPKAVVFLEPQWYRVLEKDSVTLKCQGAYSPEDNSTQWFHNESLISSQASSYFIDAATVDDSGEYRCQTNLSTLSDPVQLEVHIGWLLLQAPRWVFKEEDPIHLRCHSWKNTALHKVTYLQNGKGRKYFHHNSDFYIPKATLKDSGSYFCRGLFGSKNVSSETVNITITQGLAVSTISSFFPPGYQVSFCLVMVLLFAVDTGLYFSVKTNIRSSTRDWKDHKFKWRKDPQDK
T1 sequence (P55899 24-297 limits assumed, chain 1 of 2): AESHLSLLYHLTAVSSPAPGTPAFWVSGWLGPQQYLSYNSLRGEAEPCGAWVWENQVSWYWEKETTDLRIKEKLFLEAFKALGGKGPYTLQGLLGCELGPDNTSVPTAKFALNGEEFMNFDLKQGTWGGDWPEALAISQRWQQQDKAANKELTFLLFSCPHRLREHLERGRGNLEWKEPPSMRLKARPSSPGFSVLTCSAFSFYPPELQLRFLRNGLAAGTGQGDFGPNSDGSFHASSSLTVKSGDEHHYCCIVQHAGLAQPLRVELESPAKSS
T1 sequence (P61769 21-119 limits assumed, chain 2 of 2): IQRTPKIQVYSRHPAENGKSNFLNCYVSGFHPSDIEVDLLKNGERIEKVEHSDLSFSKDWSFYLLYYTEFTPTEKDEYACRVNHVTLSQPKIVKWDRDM

Row | Binder | neutralization IC50, HIV-1 BaL, CEM.NKr.CCR5.Luc assay (HIV-1 BaL Env (on virus)) [ng/mL] | neutralization IC50, HIV-1 HT593, CEM.NKr.CCR5.Luc assay [1] [ng/mL] | neutralization IC50, HIV-1 US657, CEM.NKr.CCR5.Luc assay [2] [ng/mL] | neutralization IC50, HIV-1 US712, CEM.NKr.CCR5.Luc assay [3] [ng/mL] | neutralization IC50, HIV-1 US727, CEM.NKr.CCR5.Luc assay [4] [ng/mL] | ADCC AUC, NK donor A4813, primary CD4+ T cells infected with HT593 [5] | ADCC AUC, NK donor A4813, primary CD4+ T cells infected with US657 [5] | ADCC EC50, NK donor A4813, primary CD4+ T cells infected with HT593 [5] [nM] | ADCC EC50, NK donor A4813, primary CD4+ T cells infected with US657 [5] [nM] | ADCC Emax, NK donor A4813, primary CD4+ T cells infected with HT593 [5] [%] | ADCC Emax, NK donor A4813, primary CD4+ T cells infected with US657 [5] [%] | EC50 (Human FcRn [6]) [nM] | EC50 (Human FcRn [7]) [nM] | Fold vs PGT121 (Human FcRn [8]) [fold] | Ratio pH 7.0/6.0 (Human FcRn [9])
1 | B1 | 7 | 141 | 62 | 8 | 7 |  |  |  |  |  |  |  |  |  | 
2 | B2 | 8 | 343 | 72 | 8 | 5 |  |  |  |  |  |  |  |  |  | 
3 | B3 |  |  |  |  |  | 169 | 190 | 2.2 | 1.3 | 70 | 72 | 0.13 | 140 | 33 | 1070
4 | B4 |  |  |  |  |  | 161 | 219 | 6.3 |  | 72 | 71 | 0.47 | 102 |  | 
5 | B5 |  |  |  |  |  | 158 | 190 | 2.6 | 3.2 | 71 | 75 | 0.57 | 104 | 6 | 182
6 | B6 |  |  |  |  |  | 167 | 188 | 1.4 | 1.6 | 66 | 70 | 1.59 | 125 | 2 | 79
7 | B7 |  |  |  |  |  | 191 | 222 | 4.9 | 1.4 | 71 | 72 | 0.41 | 69.8 | 5 | 170

From US20210155676A1 (Gilead, published 2021)
